The values below come from US20260258113A1, “BETA GLOBIN MIMETIC PEPTIDES AND THEIR USE” (THE UNITED STATES OF AMERICA, AS REPRESENTED BY THE …, priority 2022, published 2026).

For the assay, the target named is endothelial nitric oxide synthase (eNOS), endogenous, in human resistance arteries (human) (UniProt P29474). Briefly: cell-based or functional assay.
Sequence of endothelial nitric oxide synthase (eNOS), endogenous, in human resistance arteries (human) (P29474 2-1203 limits assumed): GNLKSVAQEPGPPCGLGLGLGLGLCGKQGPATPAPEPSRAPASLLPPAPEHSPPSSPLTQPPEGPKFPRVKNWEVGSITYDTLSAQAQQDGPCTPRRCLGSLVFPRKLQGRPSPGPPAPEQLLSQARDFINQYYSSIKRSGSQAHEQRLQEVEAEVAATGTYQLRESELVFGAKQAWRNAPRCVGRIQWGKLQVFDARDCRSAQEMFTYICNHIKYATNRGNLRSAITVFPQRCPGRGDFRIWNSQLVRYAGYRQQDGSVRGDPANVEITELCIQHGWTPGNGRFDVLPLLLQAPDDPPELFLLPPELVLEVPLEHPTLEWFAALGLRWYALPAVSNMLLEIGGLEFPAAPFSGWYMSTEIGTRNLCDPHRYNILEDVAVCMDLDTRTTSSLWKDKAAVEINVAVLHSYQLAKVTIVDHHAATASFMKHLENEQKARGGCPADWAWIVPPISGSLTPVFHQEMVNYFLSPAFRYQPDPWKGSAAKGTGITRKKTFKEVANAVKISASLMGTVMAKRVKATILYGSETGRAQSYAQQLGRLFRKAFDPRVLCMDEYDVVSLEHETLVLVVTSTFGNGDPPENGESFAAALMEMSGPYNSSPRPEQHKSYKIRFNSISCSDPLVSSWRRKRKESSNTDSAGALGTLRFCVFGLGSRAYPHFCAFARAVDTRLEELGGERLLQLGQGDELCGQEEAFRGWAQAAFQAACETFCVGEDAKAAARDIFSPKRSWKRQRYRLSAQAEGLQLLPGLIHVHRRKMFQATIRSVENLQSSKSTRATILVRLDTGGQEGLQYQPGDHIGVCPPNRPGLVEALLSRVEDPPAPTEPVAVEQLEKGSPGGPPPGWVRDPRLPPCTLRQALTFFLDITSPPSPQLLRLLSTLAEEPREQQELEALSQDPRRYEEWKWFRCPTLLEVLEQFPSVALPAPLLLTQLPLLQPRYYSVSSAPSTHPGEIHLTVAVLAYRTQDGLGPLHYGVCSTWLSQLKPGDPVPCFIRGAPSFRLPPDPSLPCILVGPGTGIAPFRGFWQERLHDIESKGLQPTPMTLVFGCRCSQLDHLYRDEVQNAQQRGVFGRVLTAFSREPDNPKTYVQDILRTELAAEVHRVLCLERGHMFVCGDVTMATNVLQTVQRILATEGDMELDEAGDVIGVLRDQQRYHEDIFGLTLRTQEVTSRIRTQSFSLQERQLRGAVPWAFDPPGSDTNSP

Consider “alpha globin mimetic peptide HbαX with N-terminal HIV-tat tag”, for which the Bottom (4-PL minimum of phenylephrine-induced constriction, % of baseline diameter), PE + Mimetic + LNAME, human omental arteries, pressure myography (% of baseline diameter) came out at 41.9 and the Bottom (4-PL minimum of phenylephrine-induced constriction, % of baseline diameter), PE + Mimetic, human omental arteries, pressure myography, peptide 5 µmol/L (% of baseline diameter) amounted to 64.6.
